{
  "source": "patent US20170158742A1",
  "about": "(NATIONAL UNIVERSITY OF SINGAPORE, published 2017)",
  "data": [
    {"target": "biotinylated full-length Dengue virus capsid (DENV C) protein (Dengue virus serotype 2 (NGC strain))", "assay": "ELISA, coated bought protein, biotinylated DENV C as probe, streptavidin-HRP", "values": [
      {"binder": "Signal recognition particle 19kDa (other, also called SRP19) MACAAARSPADQDRFICIYPAYLNNKKTIAEGRRIPISKAVENPTATEIQDVCSAVGLNVFLEKNKMYSREWNRDVQYRGRVRVQLKQEDGSLCLVQFPSRKSVMLYAAEMIPKLKTRTQKTGGADQSLQQGEGSKKGKGKKKK", "binding result": "binds"},
      {"binder": "DIM1 dimethyladenosine transferase 1 homolog (S. cerevisiae) (enzyme, also called DIMT1) MPKVKSGAIGRRRGRQEQRRELKSAGGLMFNTGIGQHILKNPLIINSIIDKAALRPTDVVLEVGPGTGNMTVKLLEKAKKVVACELDPRLVAELHKRVQGTPVASKLQVLVGDVLKTDLPFFDTCVANLPYQISSPFVFKLLLHRPFFRCAILMFQREFALRLVAKPGDKLYCRLSINTQLLARVDHLMKVGKNNFRPPPKVESSVVRIEPKNPPPPINFQEWDGLVRITFVRKNKTLSAAFKSSAVQQLLEKNYRIHCSVHNIIIPEDFSIADKIQQILTSTGFSDKRARSMDIDDFIRLLHGFNAEGIHFS", "binding result": "binds"},
      {"binder": "Vaccinia related kinase 1 (enzyme, also called VRK1) MPRVKAAQAGRQSSAKRHLAEQFAVGEIITDMAKKEWKVGLPIGQGGFGCIYLADMNSSESVGSDAPCVVKVEPSDNGPLFTELKFYQRAAKPEQIQKWIRTRKLKYLGVPKYWGSGLHDKNGKSYRFMIMDRFGSDLQKIYEANAKRFSRKTVLQLSLRILDILEYIHEHEYVHGDIKASNLLLNYKNPDQVYLVDYGLAYRYCPEGVHKEYKEDPKRCHDGTIEFTSIDAHNGVAPSRRGDLEILGYCMIQWLTGHLPWEDNLKDPKYVRDSKIRYRENIASLMDKCFPEKNKPGEIAKYMETVKLLDYTEKPLYENLRDILLQGLKAIGSKDDGKLDLSVVENGGLKAKTITKKRKKEIEESKEPGVEDTEWSNTQTEEAIQTRSRTRKRVQK", "binding result": "binds"}
    ]}
  ]
}
